Data on two proteins can be found in paper PMC9927289, “Control of Cell Size by c-di-GMP Requires a Two-Component Signaling System in the Cyanobacterium Anabaena sp. Strain PCC 7120” (Microbiology Spectrum, 2023).

Substrate in data set [1]: Nc1nc2c(ncn2[C@@H]2O[C@H](COP(=O)(O)OP(=O)(O)OP(=O)(O)O)[C@@H](O)[C@H]2O)c(=O)[nH]1
Kind of data set: diguanylate cyclase assay, Michaelis-Menten and Lineweaver-Burk. The class given is biochemical, Nostoc sp. PCC 7120 = FACHB-418. Particulars: c-di-GMP synthesis; GTP varied. The text has this: diguanylate cyclase assay, Michaelis-Menten and Lineweaver-Burk on CdgS (All2874) | kinetic curves for c-di-GMP synthesis of CdgS and CdgS^D60A followed Michaelis–Menten kinetics

Substrate in data set [2]: Nc1nc2c(ncn2[C@@H]2O[C@H](COP(=O)(O)OP(=O)(O)OP(=O)(O)O)[C@@H](O)[C@H]2O)c(=O)[nH]1
Described as above. The class given is biochemical, Nostoc sp. PCC 7120 = FACHB-418. Particulars: c-di-GMP synthesis; GTP varied. The text has this:
diguanylate cyclase assay, Michaelis-Menten and Lineweaver-Burk on CdgS (All2874) | CdgS^D60A could still synthesize c-di-GMP using GTP as the substrate
This is another data set of the same source.

B1: CdgS (All2874) (Nostoc sp. PCC 7120 = FACHB-418) (protein)
chain: MKNTVPESQCLILIVDDEPFIRAQLRLSLQCEGYRTAEAEDGRQALAIFQELQPDIVLLDAIMPDLDGFECCTRLQLLEDGKYTPVLMITGLEDQESVDRAFEVGAIDYVTKPIHWPVLRQRVKRLIQQFHLQQKLEAANRELQRLVTIDELTQVANRRRFEEYCAQEWQRMARDQLPLSLILCDVDFFKAYNDTYGHRAGDRCLQLVAKAIESCVNRPADVVARYGGEEFAVILPRTYPDGAIHLANAICTAVRELQITHLTSQANTCVTISAGVATEIPVPNSDFQEIINAADRALYQAKMTGRDGCQQYIKQSSSPVYFLNAHHRLA
notes: REC-GGDEF response regulator; recombinant from E. coli BL21(DE3), pHTwinStrep vector (two tandem C-terminal Strep-tags)
Consider B1, for which, in data set [1], the Km was determined as 5.84 µM and the kcat came to 73.68 s⁻¹.

B2: CdgS (All2874) (Nostoc sp. PCC 7120 = FACHB-418; D60A) (protein)
chain: MKNTVPESQCLILIVDDEPFIRAQLRLSLQCEGYRTAEAEDGRQALAIFQELQPDIVLLAAIMPDLDGFECCTRLQLLEDGKYTPVLMITGLEDQESVDRAFEVGAIDYVTKPIHWPVLRQRVKRLIQQFHLQQKLEAANRELQRLVTIDELTQVANRRRFEEYCAQEWQRMARDQLPLSLILCDVDFFKAYNDTYGHRAGDRCLQLVAKAIESCVNRPADVVARYGGEEFAVILPRTYPDGAIHLANAICTAVRELQITHLTSQANTCVTISAGVATEIPVPNSDFQEIINAADRALYQAKMTGRDGCQQYIKQSSSPVYFLNAHHRLA
notes: as for B1
With B2, in data set [2], the Km was determined as 6.33 µM and the kcat was 60.53 s⁻¹.
